Columns and labels:
[1] = biological target: BG505 N332 SOSIP gp140 envelope trimer (unmutated BG505 SOSIP) (HIV-1 (clade A, BG505)); test: negative-stain electron microscopy
soluble CD4 = soluble CD4 (UniProt P01730); test: SPR
soluble CD4 (sCD4) = soluble CD4 (sCD4) (UniProt P01730); test: SPR

Substance	stoichiometry N [1]	Kd (soluble CD4) [nM]	koff (soluble CD4 (sCD4)) [s⁻¹]	kon (soluble CD4 (sCD4)) [M⁻¹ s⁻¹]
BG505 N332 SOSIP gp140 envelope trimer (unmutated BG505 SOSIP) (complex)	3	67.9		
BG505 SOSIP.664 (unmutated BG505 N332 SOSIP gp140 trimer) (complex)			0.00061	11200

Reference: article PMC6981184
